Target: IZN36 (HIV)

B1: D5 IgG (antibody, V domains shown)
VH: QVQLVQSGAEVRKPGASVKVSCKASGDTFSSYAISWVRQAPGQGLEWMGGIIPIFGTANYAQKFQGRVTITADESTSTAYMELSSLRSEDTAIYYCARDNPTLLGSDYWGKGTLVTVSS
VL: DIQMTQSPSTLSASIGDRVTITCRASEGIYHWLAWYQQKPGKAPKLLIYKASSLASGAPSRFSGSGSGTDFTLTISSLQPDDFATYYCQQYSNYPLTFGGGTKLEIK
IC50 (read off the curve): 0.6 nM

From US20070248613A1
